{
  "source": "paper PMC4131687",
  "details_in_all_cases": "modification not given",
  "key": {"[1]": {"target": "NaV1.2 (Rattus norvegicus), P04775", "sequence (P04775 whole entry)": "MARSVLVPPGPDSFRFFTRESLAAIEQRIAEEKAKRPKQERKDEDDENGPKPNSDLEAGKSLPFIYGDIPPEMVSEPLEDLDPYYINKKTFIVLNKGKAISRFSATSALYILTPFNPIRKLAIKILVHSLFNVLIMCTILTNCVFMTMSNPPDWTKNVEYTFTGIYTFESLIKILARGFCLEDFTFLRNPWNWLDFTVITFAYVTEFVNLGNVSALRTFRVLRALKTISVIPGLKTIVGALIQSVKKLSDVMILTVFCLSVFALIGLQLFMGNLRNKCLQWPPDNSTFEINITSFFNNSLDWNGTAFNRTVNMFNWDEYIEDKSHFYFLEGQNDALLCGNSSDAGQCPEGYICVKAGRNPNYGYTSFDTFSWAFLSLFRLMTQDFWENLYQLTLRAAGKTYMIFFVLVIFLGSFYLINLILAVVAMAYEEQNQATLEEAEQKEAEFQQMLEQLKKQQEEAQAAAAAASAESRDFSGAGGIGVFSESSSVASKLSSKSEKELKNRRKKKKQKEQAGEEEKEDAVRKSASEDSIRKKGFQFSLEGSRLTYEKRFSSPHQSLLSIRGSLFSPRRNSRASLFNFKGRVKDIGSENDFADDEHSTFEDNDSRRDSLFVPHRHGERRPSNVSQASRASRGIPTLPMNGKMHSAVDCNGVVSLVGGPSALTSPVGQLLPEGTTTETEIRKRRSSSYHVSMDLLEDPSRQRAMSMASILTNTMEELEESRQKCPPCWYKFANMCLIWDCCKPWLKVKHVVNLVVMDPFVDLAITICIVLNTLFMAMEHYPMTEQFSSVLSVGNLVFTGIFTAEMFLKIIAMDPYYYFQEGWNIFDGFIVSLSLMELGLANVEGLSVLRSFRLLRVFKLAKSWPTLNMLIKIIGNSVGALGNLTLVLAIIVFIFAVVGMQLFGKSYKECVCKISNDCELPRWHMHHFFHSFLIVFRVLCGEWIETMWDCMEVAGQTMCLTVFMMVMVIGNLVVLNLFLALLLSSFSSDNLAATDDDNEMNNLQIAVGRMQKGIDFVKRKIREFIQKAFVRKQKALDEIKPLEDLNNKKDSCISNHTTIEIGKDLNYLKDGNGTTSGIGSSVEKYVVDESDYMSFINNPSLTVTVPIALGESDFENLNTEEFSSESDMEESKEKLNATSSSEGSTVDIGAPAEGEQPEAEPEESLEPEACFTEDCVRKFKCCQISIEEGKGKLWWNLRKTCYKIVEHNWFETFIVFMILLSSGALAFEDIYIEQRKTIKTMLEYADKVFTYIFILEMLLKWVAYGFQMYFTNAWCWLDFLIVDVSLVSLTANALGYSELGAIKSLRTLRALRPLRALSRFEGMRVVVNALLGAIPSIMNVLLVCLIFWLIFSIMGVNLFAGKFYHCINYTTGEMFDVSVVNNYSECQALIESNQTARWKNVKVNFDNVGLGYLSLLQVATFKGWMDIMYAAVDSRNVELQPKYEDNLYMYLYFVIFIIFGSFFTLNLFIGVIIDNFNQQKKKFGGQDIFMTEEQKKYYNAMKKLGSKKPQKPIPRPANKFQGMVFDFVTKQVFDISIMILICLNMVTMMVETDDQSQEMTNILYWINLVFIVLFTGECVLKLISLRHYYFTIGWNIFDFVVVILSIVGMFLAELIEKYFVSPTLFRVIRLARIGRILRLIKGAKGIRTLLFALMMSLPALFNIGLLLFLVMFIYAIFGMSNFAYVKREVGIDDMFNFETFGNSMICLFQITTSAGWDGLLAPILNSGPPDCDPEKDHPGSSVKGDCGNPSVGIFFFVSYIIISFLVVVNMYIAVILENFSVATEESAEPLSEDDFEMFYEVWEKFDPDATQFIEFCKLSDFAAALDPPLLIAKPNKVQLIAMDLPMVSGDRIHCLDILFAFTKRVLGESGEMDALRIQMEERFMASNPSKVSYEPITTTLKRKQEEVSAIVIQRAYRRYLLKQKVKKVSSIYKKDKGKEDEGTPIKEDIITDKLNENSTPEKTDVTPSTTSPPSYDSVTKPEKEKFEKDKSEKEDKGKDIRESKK"}, "[2]": {"target": "NaV1.7 (Rattus norvegicus), O08562"}, "[3]": {"target": "NaV1.4 (Rattus norvegicus), P15390", "sequence (P15390 whole entry)": "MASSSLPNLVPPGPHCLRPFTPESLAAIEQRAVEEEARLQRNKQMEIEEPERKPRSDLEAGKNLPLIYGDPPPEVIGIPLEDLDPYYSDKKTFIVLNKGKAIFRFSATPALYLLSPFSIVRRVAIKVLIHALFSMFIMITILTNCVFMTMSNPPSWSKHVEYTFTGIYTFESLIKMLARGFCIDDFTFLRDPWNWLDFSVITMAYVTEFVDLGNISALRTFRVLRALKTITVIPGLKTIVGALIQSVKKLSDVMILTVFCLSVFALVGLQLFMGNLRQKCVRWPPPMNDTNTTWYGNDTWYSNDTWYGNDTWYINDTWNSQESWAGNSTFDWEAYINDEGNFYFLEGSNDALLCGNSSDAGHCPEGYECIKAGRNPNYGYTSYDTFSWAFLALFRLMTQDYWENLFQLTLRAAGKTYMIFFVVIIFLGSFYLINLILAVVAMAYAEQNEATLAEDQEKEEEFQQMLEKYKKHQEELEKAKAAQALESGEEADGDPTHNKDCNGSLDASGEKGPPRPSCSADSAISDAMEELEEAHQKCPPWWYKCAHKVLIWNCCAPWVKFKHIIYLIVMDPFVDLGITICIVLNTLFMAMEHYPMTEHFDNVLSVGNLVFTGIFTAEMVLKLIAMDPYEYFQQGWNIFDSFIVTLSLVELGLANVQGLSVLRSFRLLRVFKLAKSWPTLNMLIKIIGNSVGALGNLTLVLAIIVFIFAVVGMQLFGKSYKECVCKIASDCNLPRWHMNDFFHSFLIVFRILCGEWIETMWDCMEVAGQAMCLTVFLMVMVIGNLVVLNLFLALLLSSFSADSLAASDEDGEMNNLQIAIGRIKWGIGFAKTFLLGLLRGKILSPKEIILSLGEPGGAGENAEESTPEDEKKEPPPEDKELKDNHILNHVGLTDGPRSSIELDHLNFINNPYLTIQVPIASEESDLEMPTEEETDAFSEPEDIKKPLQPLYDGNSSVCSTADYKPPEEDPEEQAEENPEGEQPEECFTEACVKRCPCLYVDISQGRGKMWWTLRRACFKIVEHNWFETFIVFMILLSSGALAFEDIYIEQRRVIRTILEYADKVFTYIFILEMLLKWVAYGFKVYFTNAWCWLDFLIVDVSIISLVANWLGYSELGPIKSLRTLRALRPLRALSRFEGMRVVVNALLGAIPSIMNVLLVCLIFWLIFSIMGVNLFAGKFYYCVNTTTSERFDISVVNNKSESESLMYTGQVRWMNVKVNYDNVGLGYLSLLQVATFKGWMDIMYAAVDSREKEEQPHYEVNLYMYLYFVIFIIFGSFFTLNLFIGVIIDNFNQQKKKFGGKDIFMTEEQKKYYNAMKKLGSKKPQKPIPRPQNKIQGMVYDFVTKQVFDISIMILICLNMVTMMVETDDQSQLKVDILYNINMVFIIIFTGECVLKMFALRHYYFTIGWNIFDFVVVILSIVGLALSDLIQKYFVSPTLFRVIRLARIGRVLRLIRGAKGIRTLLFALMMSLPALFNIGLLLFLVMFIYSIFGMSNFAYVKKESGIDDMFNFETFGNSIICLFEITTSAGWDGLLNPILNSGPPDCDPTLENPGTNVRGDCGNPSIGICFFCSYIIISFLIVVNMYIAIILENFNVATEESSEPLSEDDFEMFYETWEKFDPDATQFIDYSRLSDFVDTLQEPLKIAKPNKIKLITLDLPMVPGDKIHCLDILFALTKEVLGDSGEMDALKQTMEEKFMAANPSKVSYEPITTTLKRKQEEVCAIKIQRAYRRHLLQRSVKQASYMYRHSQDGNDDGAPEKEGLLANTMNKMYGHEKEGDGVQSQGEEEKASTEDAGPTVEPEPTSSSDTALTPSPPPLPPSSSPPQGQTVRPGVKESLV"}},
  "data": [
    {"binder": "CCNCSSKWCRDHSRCC", "note": "[μ-conotoxin KIIIA-P2, P0C195]", "values": [
      {"measurement": "Kd", "setting": "[1]", "result": 230, "unit": "nM"},
      {"measurement": "Kd", "setting": "[2]", "result": 1570, "unit": "nM"},
      {"measurement": "Kd", "setting": "[3]", "result": 830, "unit": "nM"}
    ]}
  ]
}
